# Test results taken from patent US20150098947A1 (RESEARCH DEVELOPMENT FOUNDATION, published 2015).
# T1: Olfml-3 peptide A (human Olfml3 86-99 aa, coiled-coil domain) (human)
# T1 peptide: RVDRLEREVDYLET
# T2: Olfml-3 peptide B (human Olfml3 390-403 aa, olfactomedin-like domain) (human)
# T2 peptide: GYQIVYKLEMRKKE
# T3: human Olfml3-FLAG (human, UniProt Q9NRN5 22-406, limits assumed)
# T3 construct: Screening antigen of the hybridoma ELISA; the tag is written last only by convention; not shown: FLAG tag
# T3 sequence (looked up): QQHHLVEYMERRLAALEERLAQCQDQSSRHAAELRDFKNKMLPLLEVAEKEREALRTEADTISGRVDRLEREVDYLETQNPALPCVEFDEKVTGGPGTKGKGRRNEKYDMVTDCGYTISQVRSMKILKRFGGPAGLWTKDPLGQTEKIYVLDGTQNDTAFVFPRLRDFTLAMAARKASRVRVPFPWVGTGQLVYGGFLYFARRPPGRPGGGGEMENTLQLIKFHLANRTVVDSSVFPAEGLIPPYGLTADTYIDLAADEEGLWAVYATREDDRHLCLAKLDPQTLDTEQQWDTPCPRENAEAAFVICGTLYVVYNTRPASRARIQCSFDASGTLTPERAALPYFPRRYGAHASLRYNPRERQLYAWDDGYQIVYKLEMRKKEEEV
# How the values were obtained:
# [1] = target: T1, Olfml-3 peptide A (human Olfml3 86-99 …); assay: peptide binding test (ELISA)
# [2] = target: T2, Olfml-3 peptide B (human Olfml3 390-403 …); assay: peptide binding test (ELISA)
# human Olfml3-FLAG = target: T3, human Olfml3-FLAG; assay: hybridoma screening ELISA
# Protocol: The inventors produced a panel of monoclonal antibodies against a recombinant Olfml-3 protein. Three antibodies against human Olfml3 were generated using standard techniques by injecting simultaneously two 14-aa long peptides comprising epitopes in the coiled-coil (peptide A, 86-99 aa: […]; SEQ ID NO: 5) and the olfactomedin-like domains (peptide B, 390-403 aa: […]; SEQ ID NO: 6) as immunogens in rats (Aurrand-Lions et al., 1996). Briefly, human Olfml3 peptides A and B coupled to 100 μg KLH carrier protein (keyhole limpet hemocyanin, Pierce) and mixed with adjuvant 56322 (Sigma), were used to immunize female Wister rats. In total, three injections were performed every 9 days. Two days after a final s.c. injection of human Olfml3 peptides, blasts from draining lymph nodes were fused to Sp2/0 cells, and hybridomas were selected in HAT-containing medium (Life Technologies). Growing clones were screened by ELISA for the production of monoclonal antibodies recognizing specifically human Olfml3-FLAG. Positive clones were subcloned, rescreened, and further tested. Antibodies were purified on protein G-Sepharose columns (GE HealthCare) according to the manufacturer instructions. Two Olfml3-binding antibodies, 46A9BO and 9F8BO, are of IgG2b isotype subclass and one, Z14A7, is of IgG2c isotype subclass. The 46A9BO and 9F8BO monoclonal antibodies were used for in vivo tumor graft models.
Binder,binding result [1],binding result [2],binding result (human Olfml3-FLAG)
"46A9BO monoclonal antibody (glycosylated) (antibody, IgG2b, V domains shown, also called mAb 2; anti-Olfml-3B) VH: AVHLVESGGGLVQPKESLKISCAASGFTFSNAAMYWVRQAPGKGLEWVARIRTKPNDYATYYVDSVKGRFTISRDDSQSMVYLQMDNLKTEDTAMYYCTAFTEPDYWGQGVMVTVSS VL: LIQPPSASVTLGSTVSLTCVGDELSKTYAHWYQQKPDKTIVSVIYKDSERPSGISDRFSGSSSGTTATLTIHGTLAEDEADYYCLSTYSDDNLPVFGGGTKLTVL",no binding,binds,binds
"deglycosylated 46A9BO antibody (antibody, V domains shown, Same rat IgG2b antibody as 46A9BO after deglycosylation; also called 46A9BO (deglycosylated)) VH: AVHLVESGGGLVQPKESLKISCAASGFTFSNAAMYWVRQAPGKGLEWVARIRTKPNDYATYYVDSVKGRFTISRDDSQSMVYLQMDNLKTEDTAMYYCTAFTEPDYWGQGVMVTVSS VL: LIQPPSASVTLGSTVSLTCVGDELSKTYAHWYQQKPDKTIVSVIYKDSERPSGISDRFSGSSSGTTATLTIHGTLAEDEADYYCLSTYSDDNLPVFGGGTKLTVL",no binding,binds,–
"Z14A7 monoclonal antibody (antibody, IgG2c, V domains shown, Rat hybridoma antibody, IgG2c) VH: EVQLVETGGSLVQPGKSLKLTCATSGFTFSNAWMHWVRQSPEKQLEWVAQIKAKSNNYATYYAESVKGRFTISRDDSKSSIYLQMNSLKEEDTAIYYCLYGYYFDYWGQGVMVTVSS VL: DVVMTQTPVSLPVSLGGQASISCRSSQSLIHSNGNTYLHWFLQKPGQSPQLLIYRISNRFSGVPDRFSGSGSGTDFTLKISRVESEDLGLYYCLQGTHLPFTFGSGTKLEIKR",–,–,binds
